Tests used:
[1] = target: T1, Rv2034 (ArsR family regulator) (Mycobacterium tuberculosis) (UniProt O53478); test: EMSA
T1 sequence: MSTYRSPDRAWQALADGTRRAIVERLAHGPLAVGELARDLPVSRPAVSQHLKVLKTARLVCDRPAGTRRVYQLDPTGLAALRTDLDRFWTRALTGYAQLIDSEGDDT

[2] = target: T1, Rv2034 (ArsR family regulator) (Mycobacterium tuberculosis); test: DNase I footprinting
[3] = target: T2, Rv2034ΔN28 del1-28 (Mycobacterium tuberculosis) (UniProt O53478); test: EMSA
T2 sequence: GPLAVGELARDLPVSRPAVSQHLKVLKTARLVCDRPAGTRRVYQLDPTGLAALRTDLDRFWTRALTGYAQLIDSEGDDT

[4] = target: T1, Rv2034 (ArsR family regulator) (Mycobacterium tuberculosis); test: competition
[5] = target: T3, Rv2034 (ArsR family regulator) (Mycobacterium tuberculosis, UniProt O53478 1-107); test: EMSA; 0.1-1.2 uM protein; settings: protein: recombinant; tags: N-terminal His6 (pET28a); chain copies: 2; label: 5' label (32P or FITC); blunt
T3 sequence: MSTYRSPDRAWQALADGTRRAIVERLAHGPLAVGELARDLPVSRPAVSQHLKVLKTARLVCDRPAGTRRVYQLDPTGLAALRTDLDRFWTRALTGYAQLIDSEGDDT

“ACTGTCTAGAGTTGGCGCATGTACACCTGAGCCGTCGGCTCGCCCACTGGACCCGGCTCTACCCCGAGGTGCGGGTGGATCGGGCCATCGCCGGCGGCAGTGCGTGCCGTCATCTGGCCGCCAACGCAAAGCCGGGTCAGCTGTTCGTCGCGGACTCACACTCCGCGCACGAATTGTGCGGTGCATACCAGCCCGGATGCGCCGTACTTACGGTACGCAGTGCCAACTTGTAGGGAGCGGATCTTGGGAGTGGTGCCCTGGAATTCATCT (double strand) [Rv3133cp (dosR promoter)]” was tested, and the binding [1] was “binds”.

With “GATAGAATTCTACCAGTCGACTTTCCGGCGGGCCAACGTCGCCAACCGATACTCGGCTCCAACGCCATGGGTGACGGGATGCCCGGATCACGTGTCACACCACCCGCGCACCCTTGCGGAAGAATATCCGTAAGTCTAAACTTACGGTTCGTGTCCACTTACAGATCACCGGATCGCGCTTGGCAGGCGCTGGCGGACGGCACTCGCCGGGCCATCGTGGAGCGGCTGGCGCATCTAGATGTC (double strand) [Rv2034p footprint fragment]” the binding [2] was “binds”.

“AATTTCTAGAGCCTGCGGCAAGCACGTCGGTTCCATAGCGATCCAGCACGCCGCAATACTAGGGAGCCTCTCTGCCGGTCATCGCCGCGACGCGCCGCATGGGTTCTCGGAAAATGCTTGTACCAGTCGACTTTCCGGCGGGCCAACGTCGCCAACCGATACTCGGCTCCAACGCCATGGGTGACGGGATGCCCGGATCACGTGTCACACCACCCGCGCACCCTTGCGGAAGAATATCCGTAAGTCTAAACTTACGGTTCGAATTCCCGG (double strand) [Rv2034p promoter]” was tested, and the binding [1] was “binds”, the binding [3] was “no binding” and the binding [4] was “binds”.

B1: Rv2034BSwt (dsDNA)
DNA 1: GGAAGAATATCCGTAAGTCTAAACTTACGGTTCGTGTCCA
DNA 2: TGGACACGAACCGTAAGTTTAGACTTACGGATATTCTTCC
B1: binds [5].

— publication PMC3338718, “Characterization of a Novel ArsR-Like Regulator Encoded by Rv2034 in Mycobacterium tuberculosis”
